# From PMC9606269, “Biased signaling due to oligomerization of the G protein-coupled platelet-activating factor receptor” (Nature Communications, 2022)
# Legend:
# [1] = target: Halo-PAFR Cys mutant 1.33; assay: cysteine cross-linking with CuP, SDS-PAGE blot quantification of cell surface Halo-PAFR; conditions: parent: est. 5, read off a plot
# [2] = target: Halo-PAFR Cys mutant 1.35; assay: as above; conditions: parent: est. 5, read off a plot
# [3] = target: Halo-PAFR Cys mutant 1.38; assay: as above; conditions: parent: est. 5, read off a plot
# [4] = target: Halo-PAFR Cys mutant 1.39; assay: as above; conditions: parent: est. 5, read off a plot
# [5] = target: Halo-PAFR Cys mutant 1.41; assay: as above; conditions: parent: est. 5, read off a plot
# [6] = target: Halo-PAFR Cys mutant 2.59; assay: as above; conditions: parent: est. 5, read off a plot
# [7] = target: Halo-PAFR Cys mutant 2.63; assay: as above; conditions: parent: est. 5, read off a plot
# [8] = target: Halo-PAFR Cys mutant 3.23; assay: as above; conditions: parent: est. 5, read off a plot
# [9] = target: Halo-PAFR Cys mutant 3.27; assay: as above; conditions: parent: est. 5, read off a plot
# [10] = target: Halo-PAFR Cys mutant 4.47; assay: as above; conditions: parent: est. 5, read off a plot
# [11] = target: Halo-PAFR Cys mutant 4.48; assay: as above; conditions: parent: est. 5, read off a plot
# [12] = target: Halo-PAFR Cys mutant 4.51; assay: as above; conditions: parent: est. 5, read off a plot
# [13] = target: Halo-PAFR Cys mutant 4.53; assay: as above; conditions: parent: est. 5, read off a plot
# [14] = target: Halo-PAFR Cys mutant 4.54; assay: as above; conditions: parent: est. 5, read off a plot
# [15] = target: Halo-PAFR Cys mutant 4.56; assay: as above; conditions: parent: est. 5, read off a plot
# [16] = target: Halo-PAFR Cys mutant 4.57; assay: as above; conditions: parent: est. 5, read off a plot
# [17] = target: Halo-PAFR Cys mutant 4.58; assay: as above; conditions: parent: est. 5, read off a plot
# [18] = target: Halo-PAFR Cys mutant 4.60; assay: as above; conditions: parent: est. 5, read off a plot
# [19] = target: Halo-PAFR Cys mutant 4.61; assay: as above; conditions: parent: est. 5, read off a plot
# [20] = target: Halo-PAFR Cys mutant 4.64; assay: as above; conditions: parent: est. 5, read off a plot
# [21] = target: Halo-PAFR Cys mutant 6.49; assay: as above; conditions: parent: est. 5, read off a plot
# [22] = target: Halo-PAFR Cys mutant 6.51; assay: as above; conditions: parent: est. 5, read off a plot
# [23] = target: Halo-PAFR Cys mutant 6.53; assay: as above; conditions: parent: est. 5, read off a plot
# [24] = target: Halo-PAFR Cys mutant 6.54; assay: as above; conditions: parent: est. 5, read off a plot
# [25] = target: Halo-PAFR Cys mutant 6.56; assay: as above; conditions: parent: est. 5, read off a plot
# [26] = target: Halo-PAFR Cys mutant 7.33; assay: as above; conditions: parent: est. 5, read off a plot
# [27] = target: Halo-PAFR Cys mutant 7.35; assay: as above; conditions: parent: est. 5, read off a plot
# [28] = target: Halo-PAFR Cys mutant 7.37; assay: as above; conditions: parent: est. 5, read off a plot
# [29] = target: Halo-PAFR Cys mutant 7.38; assay: as above; conditions: parent: est. 5, read off a plot
# [30] = target: Halo-PAFR Y151C^4.59-I154C^4.62 (human, UniProt P25105 1-342, Y151C^4.59 | I154C^4.62, Halo-tag covalently labelled with HaloTag Alexa Fluor 660 (blots) or HaloTag Alexa Fluor 488 (imaging)); assay: cell-based or functional assay
# [31] = target: Halo-PAFR E178K (natural genetic variant) (human, UniProt P25105 1-342, E178K, Halo-tag covalently labelled with HaloTag Alexa Fluor 488); assay: cell-based or functional assay
# Sequence of Halo-PAFR E178K (natural genetic variant) (P25105 whole entry E178K): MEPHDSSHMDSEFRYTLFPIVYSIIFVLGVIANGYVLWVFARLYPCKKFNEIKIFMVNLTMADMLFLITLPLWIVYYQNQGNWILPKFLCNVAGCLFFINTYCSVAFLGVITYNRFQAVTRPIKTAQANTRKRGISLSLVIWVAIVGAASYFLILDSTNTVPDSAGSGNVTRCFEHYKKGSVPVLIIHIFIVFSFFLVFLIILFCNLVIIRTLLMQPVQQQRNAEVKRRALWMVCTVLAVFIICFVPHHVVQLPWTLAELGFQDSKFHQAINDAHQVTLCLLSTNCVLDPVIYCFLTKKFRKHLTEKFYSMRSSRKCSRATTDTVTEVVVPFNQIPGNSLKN
# Sequence of Halo-tagged wild-type human platelet-activating factor receptor (from UniProt P25105) 3.27 (P25105 whole entry, looked up, change not shown): as the sequence (P25105 whole entry E178K) above, with K178E counted along it
# Sequence of Halo-tagged wild-type human platelet-activating factor receptor (from UniProt P25105) 4.56 (P25105 whole entry, looked up, change not shown): as the sequence (P25105 whole entry E178K) above, with K178E counted along it
# Sequence of Halo-tagged wild-type human platelet-activating factor receptor (from UniProt P25105) 4.60 (P25105 whole entry, looked up, change not shown): as the sequence (P25105 whole entry E178K) above, with K178E counted along it
# Sequence of Halo-tagged wild-type human platelet-activating factor receptor (from UniProt P25105) 1.39 (P25105 whole entry, looked up, change not shown): as the sequence (P25105 whole entry E178K) above, with K178E counted along it
# Sequence of Halo-tagged wild-type human platelet-activating factor receptor (from UniProt P25105) 6.53 (P25105 whole entry, looked up, change not shown): as the sequence (P25105 whole entry E178K) above, with K178E counted along it
# Sequence of Halo-tagged wild-type human platelet-activating factor receptor (from UniProt P25105) 2.59 (P25105 whole entry, looked up, change not shown): as the sequence (P25105 whole entry E178K) above, with K178E counted along it
# Sequence of Halo-tagged wild-type human platelet-activating factor receptor (from UniProt P25105) 6.54 (P25105 whole entry, looked up, change not shown): as the sequence (P25105 whole entry E178K) above, with K178E counted along it
# Sequence of Halo-tagged wild-type human platelet-activating factor receptor (from UniProt P25105) 6.49 (P25105 whole entry, looked up, change not shown): as the sequence (P25105 whole entry E178K) above, with K178E counted along it
# Sequence of Halo-tagged wild-type human platelet-activating factor receptor (from UniProt P25105) 4.48 (P25105 whole entry, looked up, change not shown): as the sequence (P25105 whole entry E178K) above, with K178E counted along it
# Sequence of Halo-tagged wild-type human platelet-activating factor receptor (from UniProt P25105) 4.64 (P25105 whole entry, looked up, change not shown): as the sequence (P25105 whole entry E178K) above, with K178E counted along it
# Sequence of Halo-tagged wild-type human platelet-activating factor receptor (from UniProt P25105) 6.56 (P25105 whole entry, looked up, change not shown): as the sequence (P25105 whole entry E178K) above, with K178E counted along it
# Sequence of Halo-tagged wild-type human platelet-activating factor receptor (from UniProt P25105) 7.35 (P25105 whole entry, looked up, change not shown): as the sequence (P25105 whole entry E178K) above, with K178E counted along it
# Sequence of Halo-tagged wild-type human platelet-activating factor receptor (from UniProt P25105) 6.51 (P25105 whole entry, looked up, change not shown): as the sequence (P25105 whole entry E178K) above, with K178E counted along it
molecule,measurement,setting,value
Halo-tagged wild-type human platelet-activating factor receptor (from UniProt P25105) 1.33,other: change of dimer cross-linking,[1],14%
Halo-tagged wild-type human platelet-activating factor receptor (from UniProt P25105) 1.35,other: change of dimer cross-linking,[2],18%
Halo-tagged wild-type human platelet-activating factor receptor (from UniProt P25105) 1.38,other: change of dimer cross-linking,[3],16%
Halo-tagged wild-type human platelet-activating factor receptor (from UniProt P25105) 1.39,other: change of dimer cross-linking,[4],13%
Halo-tagged wild-type human platelet-activating factor receptor (from UniProt P25105) 1.41,other: change of dimer cross-linking,[5],20%
Halo-tagged wild-type human platelet-activating factor receptor (from UniProt P25105) 2.59,other: change of dimer cross-linking,[6],21%
Halo-tagged wild-type human platelet-activating factor receptor (from UniProt P25105) 2.63,other: change of dimer cross-linking,[7],14%
Halo-tagged wild-type human platelet-activating factor receptor (from UniProt P25105) 3.23,other: change of dimer cross-linking,[8],8%
Halo-tagged wild-type human platelet-activating factor receptor (from UniProt P25105) 3.27,other: change of dimer cross-linking,[9],9%
Halo-tagged wild-type human platelet-activating factor receptor (from UniProt P25105) 4.47,other: change of dimer cross-linking,[10],13%
Halo-tagged wild-type human platelet-activating factor receptor (from UniProt P25105) 4.48,other: change of dimer cross-linking,[11],14%
Halo-tagged wild-type human platelet-activating factor receptor (from UniProt P25105) 4.51,other: change of dimer cross-linking,[12],19%
Halo-tagged wild-type human platelet-activating factor receptor (from UniProt P25105) 4.53,other: change of dimer cross-linking,[13],20%
Halo-tagged wild-type human platelet-activating factor receptor (from UniProt P25105) 4.54,other: change of dimer cross-linking,[14],20%
Halo-tagged wild-type human platelet-activating factor receptor (from UniProt P25105) 4.56,other: change of dimer cross-linking,[15],22%
Halo-tagged wild-type human platelet-activating factor receptor (from UniProt P25105) 4.57,other: change of dimer cross-linking,[16],15%
Halo-tagged wild-type human platelet-activating factor receptor (from UniProt P25105) 4.58,other: change of dimer cross-linking,[17],22%
Halo-tagged wild-type human platelet-activating factor receptor (from UniProt P25105) 4.60,other: change of dimer cross-linking,[18],20%
Halo-tagged wild-type human platelet-activating factor receptor (from UniProt P25105) 4.61,other: change of dimer cross-linking,[19],18%
Halo-tagged wild-type human platelet-activating factor receptor (from UniProt P25105) 4.64,other: change of dimer cross-linking,[20],11%
Halo-tagged wild-type human platelet-activating factor receptor (from UniProt P25105) 6.49,other: change of dimer cross-linking,[21],15%
Halo-tagged wild-type human platelet-activating factor receptor (from UniProt P25105) 6.51,other: change of dimer cross-linking,[22],6%
Halo-tagged wild-type human platelet-activating factor receptor (from UniProt P25105) 6.53,other: change of dimer cross-linking,[23],10%
Halo-tagged wild-type human platelet-activating factor receptor (from UniProt P25105) 6.54,other: change of dimer cross-linking,[24],8%
Halo-tagged wild-type human platelet-activating factor receptor (from UniProt P25105) 6.56,other: change of dimer cross-linking,[25],9%
Halo-tagged wild-type human platelet-activating factor receptor (from UniProt P25105) 7.33,other: change of dimer cross-linking,[26],15%
Halo-tagged wild-type human platelet-activating factor receptor (from UniProt P25105) 7.35,other: change of dimer cross-linking,[27],16%
Halo-tagged wild-type human platelet-activating factor receptor (from UniProt P25105) 7.37,other: change of dimer cross-linking,[28],19%
Halo-tagged wild-type human platelet-activating factor receptor (from UniProt P25105) 7.38,other: change of dimer cross-linking,[29],15%
"Human β-arrestin1 tagged with Rluc (natural protein, UniProt P49407 1-418, looked up) MGDKGTRVFKKASPNGKLTVYLGKRDFVDHIDLVDPVDGVVLVDPEYLKERRVYVTLTCAFRYGREDLDVLGLTFRKDLFVANVQSFPPAPEDKKPLTRLQERLIKKLGEHAYPFTFEIPPNLPCSVTLQPGPEDTGKACGVDYEVKAFCAENLEEKIHKRNSVRLVIRKVQYAPERPGPQPTAETTRQFLMSDKPLHLEASLDKEIYYHGEPISVNVHVTNNTNKTVKKIKISVRQYADICLFNTAQYKCPVAMEEADDTVAPSSTFCKVYTLTPFLANNREKRGLALDGKLKHEDTNLASSTLLREGANREILGIIVSYKVKVKLVVSRGGLLGDLASSDVAVELPFTLMHPKPKEEPPHREVPENETPVDTNLIELDTNDDDIVFEDFARQRLKGMKDDKEEEEDGTGSPQLNNR","maximal efficacy of βarr1 recruitment, normalized to WT",[30],~60 % of WT
same,"maximal efficacy of βarr1 recruitment, normalized to WT",[31],~83 % of WT
